Experimental data from patent publication US8026218 (UNIVERSITY OF ARIZONA, dated 2011).
Bridge positions count the residues as written; N and C are the ends. Square brackets hold non-standard residues; d marks the D form. Ends that are not written are not given here. * marks the point of attachment. Glc = O-glucosyl on Ser side chain (Ser(OGlu)/Ser(OGlc)); NH(3,5-(CF3)2-benzyl) = FC(F)(F)c1cc(CN*)cc(C(F)(F)F)c1; OBzl(3,5-(CF3)2) = FC(F)(F)c1cc(CO*)cc(C(F)(F)F)c1; NH‑Bn(CF3)2 = C-terminal Bn(CF3)2 amide; Dmt = Cc1cc(O)cc(C)c1C[C@H](N)C(=O)O; Nle = CCCC[C@H](N)C(=O)O; NHBn = c1ccc(CN*)cc1

Tests used:
[1] = target: T1, guinea pig NK1 receptor (guinea pig, UniProt P30547 1-407); assay: cell-based or functional assay
T1 sequence (P30547 whole entry): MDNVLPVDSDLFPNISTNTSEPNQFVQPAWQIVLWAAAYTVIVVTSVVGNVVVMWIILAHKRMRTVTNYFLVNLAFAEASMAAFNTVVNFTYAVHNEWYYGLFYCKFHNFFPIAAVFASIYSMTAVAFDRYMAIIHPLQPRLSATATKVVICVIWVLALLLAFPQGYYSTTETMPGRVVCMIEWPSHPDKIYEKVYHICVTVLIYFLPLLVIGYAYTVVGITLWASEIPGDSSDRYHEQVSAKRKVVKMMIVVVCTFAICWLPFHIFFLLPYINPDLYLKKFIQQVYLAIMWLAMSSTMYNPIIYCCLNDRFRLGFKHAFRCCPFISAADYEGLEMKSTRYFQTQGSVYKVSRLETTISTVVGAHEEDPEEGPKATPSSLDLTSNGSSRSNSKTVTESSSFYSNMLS

[2] = target: T2, rat µ opioid receptor (rat, UniProt P33535 1-398); assay: competition vs [3H]DAMGO, rMOR cell membranes
T2 construct: whole, on cells; membrane preparations of the transfected cells were used; also called rMOR; MOR
T2 sequence (P33535 whole entry): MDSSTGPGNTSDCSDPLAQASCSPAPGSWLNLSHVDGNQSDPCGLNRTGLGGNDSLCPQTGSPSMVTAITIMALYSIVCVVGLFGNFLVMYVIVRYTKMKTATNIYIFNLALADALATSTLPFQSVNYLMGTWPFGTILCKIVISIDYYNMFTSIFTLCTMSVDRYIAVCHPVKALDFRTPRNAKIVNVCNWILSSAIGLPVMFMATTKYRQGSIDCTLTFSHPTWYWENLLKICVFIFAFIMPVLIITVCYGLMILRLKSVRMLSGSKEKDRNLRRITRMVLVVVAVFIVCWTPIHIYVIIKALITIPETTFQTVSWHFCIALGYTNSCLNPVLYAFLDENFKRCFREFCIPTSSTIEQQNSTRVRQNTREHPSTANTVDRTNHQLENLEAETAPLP

[3] = target: T3, human δ opioid receptor (human, UniProt P41143 1-372); assay: competition vs [3H]DPDPE, hDOR cell membranes
T3 construct: whole, on cells; membrane preparations of the transfected cells were used; also called hDOR; DOR
T3 sequence (P41143 whole entry, stated change not applied): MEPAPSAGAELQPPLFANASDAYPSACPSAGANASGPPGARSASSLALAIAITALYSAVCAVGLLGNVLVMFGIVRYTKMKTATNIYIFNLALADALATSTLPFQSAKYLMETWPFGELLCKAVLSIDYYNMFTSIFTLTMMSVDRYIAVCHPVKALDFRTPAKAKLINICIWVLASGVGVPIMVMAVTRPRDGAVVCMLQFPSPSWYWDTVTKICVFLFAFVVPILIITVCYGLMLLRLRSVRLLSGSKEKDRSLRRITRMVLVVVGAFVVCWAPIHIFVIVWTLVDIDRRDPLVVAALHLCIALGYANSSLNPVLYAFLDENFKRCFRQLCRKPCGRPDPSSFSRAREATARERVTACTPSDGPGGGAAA

[4] = target: T4, rat NK1 receptor (rat, UniProt P14600 1-407); assay: competition vs [3H]Substance P, rNK1 CHO cell membranes
T4 construct: whole, on cells; membrane preparations of the transfected cells were used; also called rNK1; rNK-1
T4 sequence (P14600 whole entry): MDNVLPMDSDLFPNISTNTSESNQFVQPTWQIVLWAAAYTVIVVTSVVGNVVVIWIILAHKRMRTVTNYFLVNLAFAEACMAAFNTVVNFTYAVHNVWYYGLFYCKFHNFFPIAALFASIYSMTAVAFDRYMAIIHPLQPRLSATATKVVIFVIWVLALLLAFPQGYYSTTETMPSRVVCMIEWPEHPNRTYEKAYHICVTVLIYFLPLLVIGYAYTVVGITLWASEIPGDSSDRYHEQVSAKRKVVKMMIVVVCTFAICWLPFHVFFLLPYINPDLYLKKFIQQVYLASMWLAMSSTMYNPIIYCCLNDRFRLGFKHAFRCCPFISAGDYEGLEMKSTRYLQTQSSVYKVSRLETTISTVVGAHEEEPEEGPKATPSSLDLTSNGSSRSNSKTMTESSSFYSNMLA

[5] = target: T2, rat µ opioid receptor; assay: cell-based or functional assay
[6] = target: T3, human δ opioid receptor; assay: cell-based or functional assay
[7] = target: T5, human NK1 receptor (human, UniProt P25103 1-407); assay: competition vs [3H]Substance P, hNK1 CHO cell membranes
T5 construct: whole, on cells; membrane preparations of the transfected cells were used; also called hNK1; human neurokinin-1 receptor
T5 sequence (P25103 whole entry): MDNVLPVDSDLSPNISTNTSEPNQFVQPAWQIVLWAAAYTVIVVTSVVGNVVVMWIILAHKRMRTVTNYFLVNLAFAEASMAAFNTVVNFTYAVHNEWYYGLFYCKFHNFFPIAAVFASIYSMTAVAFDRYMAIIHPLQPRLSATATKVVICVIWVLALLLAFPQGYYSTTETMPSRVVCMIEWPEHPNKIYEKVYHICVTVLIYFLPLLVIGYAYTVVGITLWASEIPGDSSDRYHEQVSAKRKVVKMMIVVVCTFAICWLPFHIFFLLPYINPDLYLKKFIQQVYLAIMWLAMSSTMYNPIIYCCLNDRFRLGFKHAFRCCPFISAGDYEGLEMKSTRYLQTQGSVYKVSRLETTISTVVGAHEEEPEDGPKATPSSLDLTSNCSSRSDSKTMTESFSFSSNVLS

[8] = target: T2, rat µ opioid receptor; assay: ratio of the Ki at rMOR to the Ki at hDOR
[9] = target: T2, rat µ opioid receptor; assay: cell-based or functional assay; remark: listed apart in the source
[10] = target: T3, human δ opioid receptor; assay: cell-based or functional assay; remark: listed apart in the source
[11] = target: T3, human δ opioid receptor; assay: competition vs [3H]DPDPE, hDOR cell membranes; remark: listed apart in the source
[12] = target: T2, rat µ opioid receptor; assay: competition vs [3H]DAMGO, rMOR cell membranes; remark: listed apart in the source
[13] = target: T5, human NK1 receptor; assay: competition vs [3H]Substance P, hNK1 CHO cell membranes; remark: listed apart in the source
[14] = target: T4, rat NK1 receptor; assay: competition vs [3H]Substance P, rNK1 CHO cell membranes; remark: listed apart in the source
[15] = target: T5, human NK1 receptor; assay: competition vs [3H]Substance P, hNK1 CHO cell membranes; remark: listed apart in the source
[16] = target: T2, rat µ opioid receptor; assay: competition vs [3H]DAMGO, rMOR cell membranes; remark: listed apart in the source
[17] = target: µ opioid receptor of the guinea pig isolated ileum (guinea pig, UniProt P97266 1-98); assay: cell-based or functional assay
Target sequence in this assay (P97266 whole entry): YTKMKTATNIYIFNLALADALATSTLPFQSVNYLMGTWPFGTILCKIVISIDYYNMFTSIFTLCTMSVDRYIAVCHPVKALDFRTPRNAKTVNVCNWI

[18] = target: T1, guinea pig NK1 receptor; assay: cell-based or functional assay; remark: listed apart in the source
[19] = target: T3, human δ opioid receptor; assay: competition vs [3H]DPDPE, hDOR cell membranes; remark: listed apart in the source
[20] = target: T6, human δ opioid receptor (human, UniProt P41143 1-372); assay: competition vs [3H]DPDPE, hDOR membranes
T6 construct: whole, on cells; Assayed as membrane preparations of transfected cells; also called hDOR; DOR
T6 sequence (P41143 whole entry, stated change not applied): as the sequence (P41143 whole entry, stated change not applied) above

[21] = target: µ opioid receptor of the guinea pig isolated ileum (guinea pig, UniProt P97266 1-98); assay: cell-based or functional assay; remark: listed apart in the source
Target sequence in this assay (P97266 whole entry): as the sequence (P97266 whole entry) above

[22] = target: guinea pig NK1 receptor (guinea pig, UniProt P30547 1-407); assay: cell-based or functional assay; remark: listed apart in the source
Target sequence in this assay (P30547 whole entry): as the sequence (P30547 whole entry) above

[23] = target: T7, human NK1 receptor (human, UniProt P25103 1-407); assay: radioligand competition vs [3H]substance P, membranes of hNK1 CHO cells
T7 construct: whole, on cells; Used as membrane preparations of transfected CHO cells; also called hNK1; human neurokinin-1 receptor
T7 sequence (P25103 whole entry): as the sequence (P25103 whole entry) above

[24] = target: T8, rat NK1 receptor (rat, UniProt P14600 1-407); assay: radioligand competition vs [3H]substance P, membranes of rNK1 CHO cells
T8 construct: whole, on cells; Used as membrane preparations of transfected CHO cells; also called rNK1; rat neurokinin-1 receptor
T8 sequence (P14600 whole entry): as the sequence (P14600 whole entry) above

[25] = target: T4, rat NK1 receptor; assay: competition vs [3H]Substance P, rNK1 CHO cell membranes; remark: listed apart in the source
[26] = target: T2, rat µ opioid receptor; assay: competition vs [3H]DAMGO, rMOR cell membranes; remark: listed apart in the source
[27] = target: T5, human NK1 receptor; assay: competition vs [3H]Substance P, hNK1 CHO cell membranes; remark: listed apart in the source
[28] = target: T4, rat NK1 receptor; assay: competition vs [3H]Substance P, rNK1 CHO cell membranes; remark: listed apart in the source
[29] = target: T3, human δ opioid receptor; assay: competition vs [3H]DPDPE, hDOR cell membranes; remark: listed apart in the source
[30] = target: T2, rat µ opioid receptor; assay: cell-based or functional assay; remark: listed apart in the source
[31] = target: T3, human δ opioid receptor; assay: cell-based or functional assay; remark: listed apart in the source
[32] = target: T9, guinea pig NK1 receptor (guinea pig, UniProt P30547 1-407); assay: cell-based or functional assay; remark: listed apart in the source
T9 sequence (P30547 whole entry): as the sequence (P30547 whole entry) above

[33] = target: T6, human δ opioid receptor; assay: ratio of Ki at rMOR to Ki at hDOR
[34] = target: T10, rat µ opioid receptor (rat, UniProt P33535 1-398); assay: cell-based or functional assay; remark: listed apart in the source
T10 sequence (P33535 whole entry): as the sequence (P33535 whole entry) above

[35] = target: T6, human δ opioid receptor; assay: cell-based or functional assay; remark: listed apart in the source
[36] = target: T11, rat NK1 receptor (rat, UniProt P14600 1-407); assay: radioligand competition vs [3H]substance P; reference value of L-732,138 (around 460 nM) is a reported one
T11 construct: whole, on cells; Assayed as membrane preparations of transfected CHO cells; also called rNK1; rNK-1
T11 sequence (P14600 whole entry): as the sequence (P14600 whole entry) above

[37] = target: T9, guinea pig NK1 receptor; assay: cell-based or functional assay; remark: listed apart in the source
[38] = target: µ opioid receptor of the guinea pig isolated ileum (guinea pig); assay: cell-based or functional assay
[39] = target: T6, human δ opioid receptor; assay: competition vs [3H]DPDPE, membranes of hDOR-transfected HN9.10 cells
[40] = target: T10, rat µ opioid receptor; assay: competition vs [3H]DAMGO, membranes of rMOR-transfected HN9.10 cells
[41] = target: T11, rat NK1 receptor; assay: competition vs [3H]substance P, membranes of rNK1-transfected CHO cells
[42] = target: T5, human NK1 receptor; assay: competition vs [3H]Substance P, hNK1 CHO cell membranes; remark: listed apart in the source
[43] = target: T3, human δ opioid receptor; assay: competition vs [3H]DPDPE, hDOR cell membranes; remark: listed apart in the source
[44] = target: T4, rat NK1 receptor; assay: competition vs [3H]Substance P, rNK1 CHO cell membranes; remark: listed apart in the source

B1: Tyr[DCysGlyPheNleProDCys]TrpNHBn(CF3)2 (peptide)
peptide: Y[dC]GF[Nle]P[dC]W-{NH(3,5-(CF3)2-benzyl)}
modifications: disulfide 2-7
notes: cyclic; also called TY038; [D-Cys2, D-Cys7]TY027
In the case of B1, the “GPI Substance P antagonist Ke” value [1] is reported as 12 nM, the Ki [2] is reported as 160 nM and the LogIC50 [2] is reported as -8.8. For the same binder, the Ki [3] was 56 nM, the LogIC50 [3] was -6.9 and the Ki [4] was 7.1 nM. For the same binder, the LogIC50 [4] was -7.7, the “[35S]GTPγS binding EC50” value [5] was 22 nM and the “[35S]GTPγS binding Emax” value [5] was 12%. The “[35S]GTPγS binding LogEC50” value [5] was -7.7, the “[35S]GTPγS binding EC50” value [6] was 51 nM and the “[35S]GTPγS binding Emax” value [6] was 87%. For the same binder, the “[35S]GTPγS binding LogEC50” value [6] was -7.3, the Ki [7] was 0.25 nM and the LogIC50 [7] was -9.3. For the same binder, the “Ki(µ)/Ki(δ)” value [8] was 2.9.

B2: Tyr[DPenGlyPhePen]ProLeuTrpNHBn(CF3)2 (peptide)
peptide: YXGFXPLW
modifications: D-Pen at 2 and Pen at 5 (written X); disulfide 2-5; C-terminal NH-3,5-Bzl(CF3)2 amide
notes: cyclic; also called TY046
In the case of B2, the “GTP binding EC50” value [9] is reported as 28.8 nM, the “GTP binding EC50” value [10] is reported as 17.3 nM and the Ki [11] is reported as 1.7 nM. It also gave a Ki [12] of 2330 nM and a Ki [13] of 0.0053 nM.

In the case of [Dmt][dA]GFMPLW-NHBn (also called TY034) [DmtDAlaGlyPheMetProLeuTrpNHBn], the Ki [14] is reported as 317 nM, the Ki [15] is reported as 2.4 nM and the Ki [16] is reported as 0.14 nM. For the same binder, the “GPI/LMMP IC50” value [17] was 11.4 nM, the “GPI/LMMP Substance P antagonist Ke” value [18] was 36.9 nM and the Ki [19] was 0.1 nM.

For Y[dC]GF[Nle]P[dC]W-{NH(3,5-(CF3)2-benzyl)} (disulfide 2-7, also called TY038; TY38), the “fold lower affinity than TY027” value [20] was 85 fold.

For Y[dA]GF[Nle]PLS(Glc)W-{NH‑Bn(CF3)2} [TyrDAlaGlyPheNleProLeuSer(OGlu)TrpNHBn(CF3)2 (TY055)], the “GPI/LMMP opioid(mu) agonist IC50” value [21] was 670 nM, the “GPI/LMMP SP antagonist Ke” value [22] was 8.4 nM and the Ki [23] was 0.052 nM. It also gave a Ki [24] of 33.9 nM.

YXGFXPLW (D-Pen at 2 and 5 (written X); disulfide 2-5; C-terminal NH-3,5-Bzl(CF3)2 amide, cyclic; also called TY049) [Tyr[DPenGlyPheDPen]ProLeuTrpNHBn(CF3)2] gave a Ki [25] of 4.54 nM and a Ki [13] of 0.18 nM.

In the case of Y[dA]GW-{OBzl(3,5-(CF3)2)} (also called NP44) [Tyr-D-Ala-Gly-Trp-O-3′,5′(CF3)2-Bzl], the Ki [26] is reported as 48.5 nM, the Ki [27] is reported as 0.03 nM and the Ki [28] is reported as 3.4 nM. The Ki [29] was 306 nM, the “GTP EC50” value [30] was 22.9 nM and the “GTP EC50” value [31] was 280 nM.

For H-Y[dA]GFFPLW-{OBzl(3,5-(CF3)2)} (also: TFA salt, TFA salt; also called TY003) [H-Tyr-D-Ala-Gly-Phe-Phe-Pro-Leu-Trp-O-3,5-Bzl(CF3)2], the “fold improvement of Ke in GPI tissue over L-732,138” value [32] was 12 fold, the “Ki(µ)/Ki(δ)” value [33] was 1.9 and the “[35S]GTP-γ-S binding EC50” value [34] was 58.7 nM. For the same binder, the “[35S]GTP-γ-S binding Emax” value [34] was 41%, the “[35S]GTP-γ-S binding LogEC50” value [34] was -7.23 and the “[35S]GTP-γ-S binding EC50” value [35] was 20.8 nM. For the same binder, the “[35S]GTP-γ-S binding Emax” value [35] was 39%, the “[35S]GTP-γ-S binding LogEC50” value [35] was -7.68 and the “fold improvement of rNK1 affinity over L-732,138” value [36] was 25 fold. For the same binder, the “Substance P GPI agonist (A50), contraction relative to KCl” value [37] was 0 % at 1 µM, the “Substance P GPI antagonist Ke” value [37] was 14.4 nM and the “GPI (µ) opioid agonist, % at 1 µM” value [38] was 7 % at 1 µM. For the same binder, the Ki [39] was 14.6 nM, the LogIC50 [39] was -7.5 and the Ki [40] was 28.3 nM. For the same binder, the LogIC50 [40] was -7.22, the IC50 [41] was 19.3 nM and the LogIC50 [41] was -7.72.

In the case of [Dmt][dA]GFMPLW-{NH(3,5-(CF3)2-benzyl)} (also called TY032) [DmtDAlaGlyPheMetProLeuTrpNHBn(CF3)2], the Ki [14] is reported as 2.3 nM, the Ki [15] is reported as 0.0079 nM and the “GPI/LMMP IC50” value [17] is reported as 18.6 nM. For the same binder, the “GPI/LMMP Substance P antagonist Ke” value [18] was 7.5 nM, the Ki [19] was 0.12 nM and the Ki [42] was 0.0079 nM. The Ki [43] was 0.12 nM and the Ki [44] was 2.3 nM.
